The text below walks through data of the DeepSol protein solubility set.

The data set is described as follows: soluble on expression in E. coli; label from the status in PepcDB or PDB records.
“MKPRQRQAAILEYLQKQGKCSVEELAQYFDTTGTTIRKDLVILEHAGTVIRTYGGVVLNKEESDPPIDHKTLINTHKKELIAEAAVSFIHDGDSIILDAGSTVLQIVPLLSRFNNITVMTNSLHIVNALSELDNEQTILMPGGTFRKKSASFHGQLAENAFEHFTFDKLFMGTDGIDLNAGVTTFNEVYTVSKAMCNAAREVILMADSSKFGRKSPNVVCSLESVDKLITDAGIDPAFRQALEEKGIDVIITGESNELEHHHHHH”: the “soluble on expression in E. coli” value is reported as “soluble”.

As for “MGSDKIHHHHHHMIGKIEPLGTSTGKILYNSHCQNILDLSVAETMEIFKSSGVILFRDFGVTPKQMKDFSEQFSGKHIIDFTKVSIDSDKYVNFVDGGMDGLIPHCENSCFPFRPDVIWFCCTVPAEQEGETLFWDGIRVWEELSQESKQLFLSKQLKFSYKNVPVDILKGIIGSNANTIDDIKQRLDSVDGVSYQFNDDKTVSVEYTCSSVVNNKYNHQNAFANHFWVYQKRTEEAIFDDGSRASDEVADEIERIFDKLTEKIPWKAGDLVMMDNSRFLHGRGAFTDNRRQVFTTLSNLKF”, the “soluble on expression in E. coli” value is reported as “not soluble”.

As to “MGSDKIHHHHHHMINFLPYSLDILRAADRDRYISVLFAPKKKRRALAALYAFNAEIARIRENVHNPLIGEIRLRWWYDSIAKSEMEKSESNPILSDLFMAMTLFNLPKTAFLRYCDAQILDLYHNPIATLYDLEFYCGETASIILQLSCQILDPDMAQNFTDAYQHAGIAQGLSGVLRLLSFMQSRYQYYLPADMLKALGIKREELESNRISKEQKCHVIEAMVALSRDHYNRFYEYFNMMPKTLKPAFLPLAIIPASLQKAIQLGAAVFQENAALPLLHRYWFITKAAISSNLPKIL”, the “soluble on expression in E. coli” value is reported as “not soluble”.

For “MSLESGELIGACEFMKDRLYFATLRNRPKSTVNTHYFSIDEELVYENFYADFGPLNLAMVYRYCCKLNKKLKSYSLSRKKIVHYTCFDQRKRANAAFLIGAYAVIYLKKTPEEAYRALLSGSNPPYLPFRDASFGNCTYNLTILDCLQGIRKGLQHGFFDFETFDVDEYEHYERVENGDFNWIVPGKFLAFSGPHPKSKIENGYPLHAPEAYFPYFKKHNVTAVVRLNKKIYEAKRFTDAGFEHYDLFFIDGSTPSDNIVRRFLNICENTEGAIAVHCKAGLGRTGTLIACYVMKHYRFTHAEIIAWIRICRPGSIIGPQQHFLEEKQASLWVQGDIFRSKLKNRPSSEGEGHHHHHH”, the “soluble on expression in E. coli” value is reported as “soluble”.

For “MSLMDYGIDIWGNENFIIKNGKVCINYEKKPAIIDIVKELRDDGYKGPLLLRFPHLIQKQIENIYGNFNKARKEFGYKGGFNAVYPLKVNQYPGFVKNLVKLGKDYNYGLEAGSKAELLLAMAYNNEGAPITVNGFKDRELINIGFIAAEMGHNITLTIEGLNELEAIIDIAKERFKPKPNIGLRVRLHSAGVGIWAKSGGINSKFGLTSTELIEAVNLLKENKLLEQFTMIHFHLGSQITEIHPLKKALNEAGNIYTELRKMGAKNLKAINLGGGLAVEYSQFKNEKSRNYTLREYANDVVFILKNIAEQKKDLEPDIFIESGRFVAANHAVLIAPVLELFSQEYAENKLILKKQNPKLIDELYDLYKSIKPSNALEYLHDSIDHLESILTLFDLGYVDLQDRSNAEILTHLITKKAILLLGDKQNPADLLAIQDEVQERYLVNFSLFQSMPDFWGLEQNFPIMPLDRLDEEPTRSASIWDITCDSDGEISYSKDKPLFLHDVDVEKENYFLGFFLVGAYQEVLGMKHNLFTHPTEAIISINEKGYEVEGIIEAQSILDTLEDLDYDIHAIMDILNERISNSKLVNDKQKKHILGELYLFLNDNGYLKSIGVEGHHHHHH”, the “soluble on expression in E. coli” value is listed as “soluble”.

For the sequence “VDLSDEEKDSIYMFASLVEKMKSRPLNEILEDSKLQNLAQRVFASKARLNYALNDKAQKYNTLIEMNGKISEIMNIYDRLLEQQLQSINLS”, the “soluble on expression in E. coli” value is given as “soluble”.

“MSLNANVVIAGPGTGKTTSISQKYLELVQSGVDPNDILCITFTNKAAENMRSRIIKALERSGTQIDLSVINVYTFHSFANSAIRRYGYRGIVNQNFLRKIIFDYLIRNSVFNYEREYLISRIVPQLENIIRYLGSFGIDRIENPEETAASLREIFKKRREEKKIKEDLEEITAIFIHLSKIMDEYRNAKEARGVIDYNDMIIKFLELEKKPHFKYVLVDELQDASDLQARLIKSVADDIYAVGDRKQAIFGFQGGGFGNFSNHFPDAHVNYLLTDHRNSEAVLNYAREFFLKNTKYPDQYRTELDQLKASKARGGSVEVVSGEEEAVLDLLKRFPEGKVGILARRNDQVIKISEILDSNGMRYASSALSAASDRAKKDVIAFLKMIIYGDMQSVIDALFTPFSGLQISEAYDIKESLISGNTSLQNYDLLNNLRRTYSAPGINGLIDMFEKLIIPIALAFDQRYFLTVERIYKNLREYLDFYGNEDRSDLINYLEICDDEVQEIDADERISVLTVHKAKGLEFDHVIYLPKAKKDEKMSAVDLVAEQMIRLKTEGHHHHHH”: the “soluble on expression in E. coli” value is “soluble”.

As for “MGSDKIHHHHHHMLKQKTLKDSFSLSGKGLHTGLDLTVTFNPAPDNHGYKIQRIDLEGQPTIDAVADNVTETTRGTVLSKNGVKVSTVEHGMAALYALGIDNCLIQVNGPEFPILDGSAQYYVQEIERVGTEEQSAVKDFYIIKSKIEFRDESTGSSIIVLPDENFSLNVLVSYDSTIIPNQFATLEDMHNFKDEVAASRTFVFVREIEPLLSAGLIKGGDLDNAIVIYERKMSQESYDKLADVMGVPHMDADQLGYINHKPLVWPNECARHKLLDVIGDLALIGKPIKGRIIATRPGHTINNKFARQMRKEIRLHEIQAPTYDCNREPVMDVNRIRELLPHRYPFQLVDKVIEMGASYIVGIKNITANEPFFQGHFPQEPVMPGVLQIEAMAQVGGLLVLNSVDEPERYSTYFMKIDGVKFRQKVVPGDTLLFRVELLAPIRRGISTMKGYAFVGEKVVCEAEFMAQIVKNK”, the “soluble on expression in E. coli” value is “not soluble”.

For the sequence “MSLTFLTGVPGFLGTRLLRRLAAAAPDRSFLLLVQPKFEGRTHTLLADRGLADRATVLPGDITEPDLGLGAHYDAVAEQITRAVHLAAVYDLTIPREVGWQVNVEGTRHVLDLLAQCPSLERFGYVSSAYVSGERTGTIHEDELVHEAGFKNFYEETKYHAEVLVQDRMDEIPTLVFRPSIVVGDSETGATDKFDGVYFVLNALRSLPRYTPMTRIGSGTEPVNLVPVDFVVDAMGHLLGTEGHAGTVFHLTDPRPLTAQAIMELLADLLDKRVAYVPVPPGLARAMMKTGVGRALGLAPELIDYFDHPSHYDASNTRAALDGTGIDCPFLPDYAPAMVAYARRHDARSSAMYEGHHHHHH”, the “soluble on expression in E. coli” value is reported as “not soluble”.

Turning to “MKKFKNILFATQGLPGHSDALEQAIQLAYNNRGQLAGLIAFPAFPADLQRYQEPYEQSYLNTLMETVEACRSQHHIHKDEVPFPLMVEHSEQPAVAIIKSALNHHIDLLIKEAEPMTHSQQGFKALDMTLLRKCPCPVWLHRPLAKPKANRRVAVAIDPITTTEQQKALALRLLELSRSIANTCDSRLHIVSCWEYYLENYLHDQVWIQVEQQQIAEEIAQAKIRHEQALRQLIDESGITGELVIHHLHGKPDELIPEWVTQENIDILVMGTLARTGIAGFVIGNTAENIVQSIECSLVALKPEGFVSPIKNE”, the “soluble on expression in E. coli” value is given as “soluble”.

Consider “MHMSQSTQRAYQEVLDWLEKELRKGSIAIGDKLPGERALAEQFELSRASVREAIRILTSMGLVRTGTGSGPHSGAIVISEPSAGLSWAIRMHLSARSLPLKDLVNTCILIESNAAADAATPKISPDSPERSHVLNEAHRLLDSMDDPTLPFHDYHIKDVNFHILITSLAGNLVTETIMESLRYSAIAFVIERLAMRTDWAEVSEKLQREHRNILRAIEERNPDKARTLVHDHIADFYELTSH”, for which the “soluble on expression in E. coli” value was “not soluble”.

As to “MGHHHHHHSHMAFPGQSDTKMQWPEVPALPLLSSLCMAMVRKSSALGKEVGRRVKEMVMLVAPFRQSSSLSRTFSSRKVVKAHASLHGARLSPLSRNIRG”, the “soluble on expression in E. coli” value was “not soluble”.

In the case of “MAHHHHHHMASSSDADGKEVGSSGEGNRATGGKWRRPSLAQQRARRAQLPPAFDVVHWNDEDISRGHLLRVLHRDTFVVLDYHRQARMLTEEGNKAERVVSVMLPAVYTARFLAVLEGRSEKVEVHSRYTNATFTPNPAAPYTFTLKCTSTRPAQQKQQVAGEEGDETFEWTVEFDVAESLMLQRFLTQALHYNTGFARTSV”, the “soluble on expression in E. coli” value is recorded as “soluble”.

For the sequence “AHHHHHHGSVKIGVIGLQGDVSEHIEATKRALERLGIEGSVIWVKRPEQLNQIDGVIIPGGESTTISRLMQRTGLFDPLKKMIEDGLPAMGTCAGLIMLAKEVIGATPEQKFLEVLDVKVNRNAYGRQVDSFEAPVKLAFDDKPFIGVFIRAPRIVELLSDKVKPLAWLEDRVVGVEQGNVIGLEFHPELTDDTRIHEYFLKKIV”, the “soluble on expression in E. coli” value is given as “soluble”.

With “MGSDKIHHHHHHMISYGELIRQIRQSKKISQKEVYTGVISKSYAIEFEKGTHAISSLLLEKIVAKLMVSMEEFFLMYHQEALPEKEDFWEAYARTCKTDEASAWESLYQKISLEKGKVNQVKSAAIKLELDHIKGKQVADKKAVQILENYLIEAVFWTLQDIFLFTRMMHYLPLKSRVPFYYKLLNTLDRYRHFERGRSISQSALASIMDDFIEKNEIEYMELMIKSLEKISEDCDGTYSKILCMYYRGIVRWREGEKREGSEEIEQAVAILRALGYENKAAEYETMYRQFARENNDIKTME”, the “soluble on expression in E. coli” value was “not soluble”.

Regarding “MSLRIALAGAGAFGEKHLDGLKNIDGVEITSIISRTGEQAAAVAAKYGAKHSSTELEDALARDDVDAVILCTPTQMHASQAIACMKAGKHVQVEIPLADSWADSQEVLRVQQETGKVCMVGHTRRFNPSHQFVHNRIKAGEFNVQQMDVQTYFFRRKNINAKGEPRSWTDHLLWHHAAHTVDLFAYQAGRIVKANAVEGPIHPELGIAMDMSIQLKSETGAICTLSLSFNNDGPLGTFFRYIGDTATYIARYDDLVNGKEEPIDVSKVDVSMNGIELQDREFVAAIREGREPNSSVQKVFDCYRVLGELEQQLAKGEGHHHHHH”, the “soluble on expression in E. coli” value is on record as “soluble”.

On to “VMVFISSSLNSFRSEKRYSRSLTIAEFKCKLELVVGSPASCMELELYGADDKFYSKLDQEDALLGSYPVDDGCSIHVIDHSG”, for which the “soluble on expression in E. coli” value is on record as “soluble”.

In the case of “MYELTEDFKLRKITKYELDGIDEREDLLVIPPSSKAGPCGNACLFCYLLQNPPEMIYKVPRHDTLNDPDLENRIRYARKHYDLWIRVTDTSGNIKFDENRIKSLYDAGLDEIQISVHTTKKDVRARLMRNRQAGKLIDLLPLVAKHFRTIADIILTPGFNVEDIGEIIEDLDSMGVHEVRLFPVGVTRYNKFGVRPLTREELSYVKGIALEKDKELAIKVVIPPIFLALLGEFTTGLEPFDIEPDFPTYIFTGELAYQEMKRLFPRVNVIMVKNEFFGGNIGSAGLLTGRDILREVEKLPEVDLGLIILPELMFYGDMTLDGWRRQELFSKILIEKGYIVETALEPTEIPRVIEKVTL”, the “soluble on expression in E. coli” value is “not soluble”.

On to “MGSDKIHHHHHHMALMFPRLARNFVKNGYFPTDEPTLERALNALMPSDGSMCILDPCAGEGVAIAEAAHALGREQVKAFAVEFDAERARHARGLVDHCLHADLMDAMISKQSFGLLWLNPPYGDLSKDVNGNIGYQGQGRARLEKLFYQRSLSLLQYGGVLVFIVPGYVLDAELVGWLTRHYTDLRIYRAVETQFKQVVIFGRRVRQREQAPDGVKAVRNLLLQVGLGEVEAEELPSDWPFLPYIVPASPAEPEHFFRVTMEPEQFADEVGRLQGLWPSLDTHLGAAQQSLRPPARALSHWHLALALAAGAISGVVRSKTGRVLVVKGDTHKDKTLQREFTEREDGSIAETRILTDKFVPVIRAWDMTPSSATRGEVLTIR”, for which the “soluble on expression in E. coli” value is “not soluble”.
